Data taken from article PMC6848426 (Rice, 2019).

Molecular target: T1, GST-OsSGT1 (rice (Oryza sativa L.), UniProt Q0JL44 1-367)
T1 sequence (looked up): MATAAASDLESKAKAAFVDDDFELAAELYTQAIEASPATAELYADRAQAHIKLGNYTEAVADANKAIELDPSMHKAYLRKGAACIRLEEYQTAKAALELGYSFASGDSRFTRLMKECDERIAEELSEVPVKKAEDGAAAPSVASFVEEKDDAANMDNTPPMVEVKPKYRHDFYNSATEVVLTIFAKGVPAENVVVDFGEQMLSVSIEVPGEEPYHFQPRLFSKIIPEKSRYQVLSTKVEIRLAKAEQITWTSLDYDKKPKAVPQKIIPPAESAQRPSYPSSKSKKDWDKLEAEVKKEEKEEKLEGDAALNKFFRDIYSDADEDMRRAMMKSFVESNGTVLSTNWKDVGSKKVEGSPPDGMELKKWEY
Test: pull-down; GST-, GST-fusion-coupled beads used to capture the His tag or His-OsSAPK9; detection with HRP-conjugated anti-His antibody
Settings: both partners purified

B1: His-OsSAPK9 (natural protein, rice (Oryza sativa L.), UniProt Q75V57 1-361, looked up)
chain: MERAAAGPLGMEMPIMHDGDRYELVKEIGSGNFGVARLMRNRASGDLVAVKYIDRGEKIDENVQREIINHRSLRHPNIIRFKEVILTPTHLAIVMEYASGGELFERICSAGRFSEDEARFFFQQLISGVSYCHSMQVCHRDLKLENTLLDGSTAPRLKICDFGYSKSSVLHSQPKSTVGTPAYIAPEVLLKKEYDGKIADVWSCGVTLYVMLVGAYPFEDPEDPKNFRKTIQKILGVQYSIPDYVHISPECRDLITRIFVGNPASRITMPEIKNHPWFMKNIPADLMDDGMVSNQYEEPDQPMQNMNEIMQILAEATIPAAGTSGINQFLTDSLDLDDDMEDMDSDLDLDIESSGEIVYAM
notes: also called histidine-tagged OsSAPK9 protein
B1: binds.
